Experimental data: patent US20250101111A1 (ARGENX, published 2025)

T1: human FcγRIIa on THP-1 cells (human, UniProt P12318 34-317)
T1 sequence (looked up): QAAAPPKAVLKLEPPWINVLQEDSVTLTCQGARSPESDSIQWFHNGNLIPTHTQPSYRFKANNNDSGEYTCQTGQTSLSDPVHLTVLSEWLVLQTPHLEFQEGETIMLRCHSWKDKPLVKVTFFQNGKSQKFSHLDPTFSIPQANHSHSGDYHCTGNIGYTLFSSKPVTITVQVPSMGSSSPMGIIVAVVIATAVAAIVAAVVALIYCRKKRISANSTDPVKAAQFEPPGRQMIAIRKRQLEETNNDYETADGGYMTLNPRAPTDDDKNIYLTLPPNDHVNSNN

B1: Fc-G236A-MST-HN (other, human, UniProt P01857-1 104-330, looked up)
chain: DKTHTCPPCPAPELLAGPSVFLFPPKPKDTLYITREPEVTCVVVDVSHEDPEVKFNWYVDGVEVHNAKTKPREEQYNSTYRVVSVLTVLHQDWLNGKEYKCKVSNKALPAPIEKTISKAKGQPREPQVYTLPPSRDELTKNQVSLTCLVKGFYPSDIAVEWESNGQPENNYKTTPPVLDSDGSFFLYSKLTVDKSRWQQGNVFSCSVMHEALKFHYTQKSLSLSPGK
notes: domain: Fc fragment; EU numbering
B2: Fc-MST-HN (other, human, UniProt P01857-1 104-330, looked up)
chain: DKTHTCPPCPAPELLGGPSVFLFPPKPKDTLYITREPEVTCVVVDVSHEDPEVKFNWYVDGVEVHNAKTKPREEQYNSTYRVVSVLTVLHQDWLNGKEYKCKVSNKALPAPIEKTISKAKGQPREPQVYTLPPSRDELTKNQVSLTCLVKGFYPSDIAVEWESNGQPENNYKTTPPVLDSDGSFFLYSKLTVDKSRWQQGNVFSCSVMHEALKFHYTQKSLSLSPGK
notes: domain: Fc fragment; MST-HN = M252Y S254T T256E H433K N434F (EU numbering); also called IgG1-Fc MST-HN
B3: human FcγRIIa-131H (receptor, UniProt P12318 34-218, looked up)
chain: QAAAPPKAVLKLEPPWINVLQEDSVTLTCQGARSPESDSIQWFHNGNLIPTHTQPSYRFKANNNDSGEYTCQTGQTSLSDPVHLTVLSEWLVLQTPHLEFQEGETIMLRCHSWKDKPLVKVTFFQNGKSQKFSHLDPTFSIPQANHSHSGDYHCTGNIGYTLFSSKPVTITVQVPSMGSSSPMGI
modifications: C-terminal biotin
notes: Bought, C-terminally biotinylated; captured on a streptavidin sensor
B4: human FcγRIIa-131R (receptor, UniProt P12318 34-218, looked up)
chain: QAAAPPKAVLKLEPPWINVLQEDSVTLTCQGARSPESDSIQWFHNGNLIPTHTQPSYRFKANNNDSGEYTCQTGQTSLSDPVHLTVLSEWLVLQTPHLEFQEGETIMLRCHSWKDKPLVKVTFFQNGKSQKFSRLDPTFSIPQANHSHSGDYHCTGNIGYTLFSSKPVTITVQVPSMGSSSPMGI
modifications: C-terminal biotin
notes: as for B3
B5: human FcγRIIIb-NA2 (receptor, UniProt O75015 17-200, looked up)
chain: GMRTEDLPKAVVFLEPQWYSVLEKDSVTLKCQGAYSPEDNSTQWFHNESLISSQASSYFIDAATVNDSGEYRCQTNLSTLSDPVQLEVHIGWLLLQAPRWVFKEEDPIHLRCHSWKNTALHKVTYLQNGKDRKYFHHNSDFHIPKATLKDSGSYFCRGLVGSKNVSSETVNITITQGLAVSTIS
modifications: C-terminal biotin
notes: In-house, C-terminally biotinylated; captured on a streptavidin sensor; also called hFcγRIIIb-NA2
B6: human FcγRIIIb-NA1 (receptor, UniProt O75015 17-200, looked up)
chain: GMRTEDLPKAVVFLEPQWYRVLEKDSVTLKCQGAYSPEDNSTQWFHNENLISSQASSYFIDAATVDDSGEYRCQTNLSTLSDPVQLEVHVGWLLLQAPRWVFKEEDPIHLRCHSWKNTALHKVTYLQNGKDRKYFHHNSDFHIPKATLKDSGSYFCRGLVGSKNVSSETVNITITQGLAVSTIS
modifications: C-terminal biotin
notes: In-house, C-terminally biotinylated; captured on a streptavidin sensor; also called hFcγRIIIb-NA1

How the values were obtained:
[1] = molecular target: T2, soluble human FcRn (human, UniProt P55899 24-297; P61769 21-119); assay: SPR (IBIS MX96), Fc fragment immobilised, soluble FcRn titrated, pH 6.0, equilibrium 1:1 fit
T2 construct: Made in HEK293F cells from two vectors; also called sFcRn; not shown: C-terminal BirA deca-His-tag
Description: (§1) Regeneration of the sensor surface between the cycles was performed by injection of 10 mM Gly-HCl pH 2.4. Affinity calculations were carried out by performing an equilibrium analysis interpolating to an Rmax of 200 to 600, depending on the assay, and fitting a 1:1 Langmuir binding model, assuming equilibrium to be reached after 360s of IgG-Fc containing analyte injections. Analysis and calculations were performed using Scrubber Software Version 2 (BioLogic Software), Excel (Microsoft) and Graphpad Prism (Prism).
(§2) Sensorgrams of a representative of three independent affinity measurements were used to determine the binding of the human IgG1-Fc variants to human FcγRs and human FcRn at pH 7.4 and pH 6.0. […] KD values were derived by performing an equilibrium analysis and fitting a 1:1 Langmuir binding model. […] No binding was marked as non-determinable (n.d.). Data are presented in Tables S1-S4 as mean±standard deviation.

[2] = molecular target: T2, soluble human FcRn; assay: SPR (IBIS MX96), Fc fragment immobilised, soluble FcRn titrated, pH 7.4, equilibrium 1:1 fit
Description: as §1, §2

[3] = molecular target: B3; assay: SPR, Fc fragments on captured FcγRs, pH 7.4
Description: as §1, with “The sensor surface was regenerated between the cycles by subsequent injections of 20 mM Tris-HCl, 150 mM NaCl pH 8.8 and 20 mM H₃PO₄ pH 2.4. […] Regeneration” for “Regeneration”

[4] = molecular target: B4; assay: SPR, Fc fragments on captured FcγRs, pH 7.4
Description: as §1, with “The sensor surface was regenerated between the cycles by subsequent injections of 20 mM Tris-HCl, 150 mM NaCl pH 8.8 and 20 mM H₃PO₄ pH 2.4. […] Regeneration” for “Regeneration”

[5] = molecular target: human FcRn, endogenous, in THP-1 cells and blood monocytes (human, UniProt P55899 24-365; P61769 21-119); assay: cell-based or functional assay
[6] = molecular target: T1, human FcγRIIa on THP-1 cells; assay: cell-based or functional assay
[7] = molecular target: T3, human FcγRIa (human, UniProt P12314 16-288); assay: SPR (IBIS MX96), FcγR captured on sensor, Fc fragment titrated, pH 7.4, equilibrium 1:1 fit
T3 construct: Bought, C-terminally His-tagged; captured on the sensor by biotinylated anti-His mIgG1; also called hFcγRIa; not shown: C-terminal His tag
T3 sequence (P12314 16-288 limits assumed): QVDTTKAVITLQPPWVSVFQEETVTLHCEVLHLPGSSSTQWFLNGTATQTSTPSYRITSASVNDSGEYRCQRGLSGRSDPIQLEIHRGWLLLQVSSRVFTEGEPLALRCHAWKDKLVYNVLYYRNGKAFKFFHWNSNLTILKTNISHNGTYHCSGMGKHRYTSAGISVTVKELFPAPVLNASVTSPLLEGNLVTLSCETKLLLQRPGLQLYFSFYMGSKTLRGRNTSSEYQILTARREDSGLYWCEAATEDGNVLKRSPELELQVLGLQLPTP
Description: as §1, with “The sensor surface was regenerated between the cycles by subsequent injections of 20 mM Tris-HCl, 150 mM NaCl pH 8.8 and 20 mM H₃PO₄ pH 2.4. […] Regeneration” for “Regeneration”

[8] = molecular target: B6; assay: SPR, Fc fragments on captured FcγRs, pH 7.4
Description: as §1, with “The sensor surface was regenerated between the cycles by subsequent injections of 20 mM Tris-HCl, 150 mM NaCl pH 8.8 and 20 mM H₃PO₄ pH 2.4. […] Regeneration” for “Regeneration”

[9] = molecular target: T4, human FcγRIIIa-158F (human, UniProt P08637 17-208, C-terminal biotin); assay: SPR, Fc fragments on captured FcγRs, pH 7.4
T4 construct: Bought, C-terminally biotinylated; captured on a streptavidin sensor; also called hFcγRIIIa-158F
Description: as §1, with “The sensor surface was regenerated between the cycles by subsequent injections of 20 mM Tris-HCl, 150 mM NaCl pH 8.8 and 20 mM H₃PO₄ pH 2.4. […] Regeneration” for “Regeneration”

[10] = molecular target: T5, human FcγRIIIa-158V (human, UniProt P08637 17-208, C-terminal biotin); assay: SPR, Fc fragments on captured FcγRs, pH 7.4
T5 construct: Bought, C-terminally biotinylated; captured on a streptavidin sensor; also called hFcγRIIIa-158V
Description: as §1, with “The sensor surface was regenerated between the cycles by subsequent injections of 20 mM Tris-HCl, 150 mM NaCl pH 8.8 and 20 mM H₃PO₄ pH 2.4. […] Regeneration” for “Regeneration”

[11] = molecular target: B5; assay: SPR, Fc fragments on captured FcγRs, pH 7.4
Description: as §1, with “The sensor surface was regenerated between the cycles by subsequent injections of 20 mM Tris-HCl, 150 mM NaCl pH 8.8 and 20 mM H₃PO₄ pH 2.4. […] Regeneration” for “Regeneration”

[12] = molecular target: T6, Fc-IHH (human, UniProt P01857-1 104-330 = IgG part, I253A; H310A; H435A); assay: SPR (IBIS MX96), FcγR captured on sensor, Fc fragment titrated, pH 7.4, equilibrium 1:1 fit
T6 construct: domain: Fc fragment; IHH = I253A H310A H435A (EU numbering); also called IgG1-Fc-IHH
Description: as §1, with “The sensor surface was regenerated between the cycles by subsequent injections of 20 mM Tris-HCl, 150 mM NaCl pH 8.8 and 20 mM H₃PO₄ pH 2.4. […] Regeneration” for “Regeneration”

[13] = molecular target: B2; assay: as above
Description: as §1, with “The sensor surface was regenerated between the cycles by subsequent injections of 20 mM Tris-HCl, 150 mM NaCl pH 8.8 and 20 mM H₃PO₄ pH 2.4. […] Regeneration” for “Regeneration”

[14] = molecular target: T7, Fc-G236A (human, UniProt P01857-1 104-330 = IgG part, G236A); assay: as above
T7 construct: domain: Fc fragment; Positions in EU numbering; also called IgG1-Fc G236A
Description: as §1, with “The sensor surface was regenerated between the cycles by subsequent injections of 20 mM Tris-HCl, 150 mM NaCl pH 8.8 and 20 mM H₃PO₄ pH 2.4. […] Regeneration” for “Regeneration”

[15] = molecular target: B1; assay: as above
Description: as §1, with “The sensor surface was regenerated between the cycles by subsequent injections of 20 mM Tris-HCl, 150 mM NaCl pH 8.8 and 20 mM H₃PO₄ pH 2.4. […] Regeneration” for “Regeneration”

[16] = molecular target: T8, Fc-WT (human, UniProt P01857-1 104-330 = IgG part, limits assumed); assay: as above
T8 construct: domain: Fc fragment; Fc-only fragment made by Evitria; also called IgG1-Fc wild-type; human IgG1-Fc fragment WT
Description: as §1, with “The sensor surface was regenerated between the cycles by subsequent injections of 20 mM Tris-HCl, 150 mM NaCl pH 8.8 and 20 mM H₃PO₄ pH 2.4. […] Regeneration” for “Regeneration”

Row | Kd [1] [nM] | Kd [2] [nM] | Kd [12] [nM] | Kd [13] [nM] | Kd [14] [nM] | Kd [15] [nM] | Binder | other results
1 | 130 |  |  |  |  |  | Fc-ΔG236 (other) DKTHTCPPCPAPELLGPSVFLFPPKPKDTLMISRTPEVTCVVVDVSHEDPEVKFNWYVDGVEVHNAKTKPREEQYNSTYRVVSVLTVLHQDWLNGKEYKCKVSNKALPAPIEKTISKAKGQPREPQVYTLPPSRDELTKNQVSLTCLVKGFYPSDIAVEWESNGQPENNYKTTPPVLDSDGSFFLYSKLTVDKSRWQQGNVFSCSVMHEALHNHYTQKSLSLSPGK | 
2 | 15.4 | 1420 |  |  |  |  | Fc-ΔG236-MST-HN (other) DKTHTCPPCPAPELLGPSVFLFPPKPKDTLYITREPEVTCVVVDVSHEDPEVKFNWYVDGVEVHNAKTKPREEQYNSTYRVVSVLTVLHQDWLNGKEYKCKVSNKALPAPIEKTISKAKGQPREPQVYTLPPSRDELTKNQVSLTCLVKGFYPSDIAVEWESNGQPENNYKTTPPVLDSDGSFFLYSKLTVDKSRWQQGNVFSCSVMHEALKFHYTQKSLSLSPGK | 
3 | 23.4 | 1340 |  |  |  |  | B1 | fold increase in affinity compared to Fc-MST-HN [3]: ~9 fold; fold increase in binding compared to Fc-WT [3]: 2 fold; fold increase in affinity compared to Fc-MST-HN [4]: ~6 fold; fold increase in binding compared to Fc-WT [4]: 2 fold; Fold-intensity of intracellular accumulation compared to Fc-WT (Image Stream, THP-1 cells) [5]: 1.87 fold of Fc-WT; Fold-intensity of intracellular accumulation compared to Fc-WT (Image Stream, THP-1 cells) [6]: 1.87 fold of Fc-WT; Kd [7]: 10.8 nM
4 | 18.9 | 1410 |  |  |  |  | B2 | fold reduction in binding compared to Fc-WT [8]: ≥ 3 fold; fold reduction in binding compared to Fc-WT [9]: ≥ 3 fold; fold reduction in binding compared to Fc-WT [10]: ≥ 3 fold; fold reduction in binding compared to Fc-WT [3]: ≥ 3 fold; fold reduction in binding compared to Fc-WT [11]: ≥ 3 fold; fold reduction in binding compared to Fc-WT [4]: ≥ 3 fold; Kd [7]: 5.9 nM
5 |  |  | > 2000 | 1650 | 91.1 | 189 | B3 | 
6 |  |  | > 2000 | > 2000 | > 2000 | > 2000 | human FcγRIIb (receptor, UniProt P31994 43-217, looked up, C-terminal biotin, Bought, C-terminally biotinylated; captured on a streptavidin sensor; also called hFcγRIIb) TPAAPPKAVLKLEPQWINVLQEDSVTLTCRGTHSPESDSIQWFHNGNLIPTHTQPSYRFKANNNDSGEYTCQTGQTSLSDPVHLTVLSEWLVLQTPHLEFQEGETIVLRCHSWKDKPLVKVTFFQNGKSKKFSRSDPNFSIPQANHSHSGDYHCTGNIGYTLYSSKPVTITVQAP | 
7 |  |  | > 2000 | 1640 | 166 | 269 | B4 | 
8 |  |  | > 2000 | > 2000 | > 2000 | > 2000 | B5 | Kd [16]: > 2000 nM
9 |  |  | > 2000 | > 2000 | > 2000 | > 2000 | B6 | Kd [16]: > 2000 nM
